{
  "source": "patent US20210292392A1",
  "about": "(TSB THERAPEUTICS BEIJING, published 2021)",
  "binders": {"B1": {"name": "P2B-1E4 (antibody, human IgG1, lambda, V domains shown)", "VH": "QITLKESGPTLVKPTQTLTLTCTFSGFSLSTSGVGVGWIRQPPGKALEWLALIYWDDDKRYSPSLKSRLTITKDTSKNQVVLTMTNMDPVDTATYYCAHQIVATIIDYWGQGTLVTVSS", "VL": "QSALTQPASVSGSPGQSITISCTGTSSDVGGYNYVSWYQQHPGKAPKLMIYDVSKRPSGVSNRFSGSKSGNTASLTISGLQAEDEADYYCSSYTSSSVVFGGGTKLTVLG"}, "B2": {"name": "P2A-1B3 (antibody, V domains shown)", "VH": "EVQLVESGGGLVQPGGSLRLSCVASGFSFNRYSMNWLRQTPRKGLEWLSYISASGNTIYYADSVRGRFTTSRDNAKNTLYLQMNSLRDDDTAVYFCARPAMVREGTYNWFDPWGQGTLVTVSS", "VL": "EIVLTQSPGTLSLSPGERATLSCRASQSVSNDYLAWYQQKPGQAPRLLIYYASSRATGIPDRFSGSGSGTDFTLTISRLEPGDSAVYYCQQYGDSPPITFGQGTRLEIKR"}, "B3": {"name": "P2B-1D9 (antibody, human IgG1, lambda, V domains shown)", "VH": "QITLKESGPTLVKPTQTLTLTCTFSGFSLSTSGVGVGWIRQPPGKALEWLALIYWDDDKYYSPSLKSRLTITKDTSKNQVVLTMTNMDPVDTATYYCAHTRILYYGSGSYYDYWGQGTLVTVSS", "VL": "not shown"}, "B4": {"name": "P2B-1A1 (antibody, human IgG1, lambda, V domains shown)", "VH": "QVQLQESGPGLVKPSETLSLTCTVSGGSISSYYWSWIRQPPGKGLEWIGYIYYSGSTNYNPSLKSRVTISVDTSKKQFSLKLSSVTAADTAVYYCARLERDWPLDAFDIWGQGTMVTVSS", "VL": "QSALTQPASVSGSPGQSITISCTGTSSDVGGYNYVSWYQQHPGKAPKFMIYDVSKRPSGVSNRFSGSKSGNTASLTISGLQAEDEADYYCSSYTSNNTFAFGGGTKLTVLG"}, "B5": {"name": "P2B-1G5 (antibody, human IgG1, lambda, V domains shown)", "VH": "QVQLVQSGSELKKPGASVKVSCKASGYTFTTYVMNWVRQAPGQGLEWMGWINTNTGNPTYAQGFTGRFVFSLDTSVSTASLQISSLKAEDTAVYYCSCEITTLGGMDVWGQGTTVTVSS", "VL": "SYVLTQPPSVSVAPGKTARITCGGNNIGSKSVHWYQQKPGQAPVLVIYYDSDRPSGIPERFSGSNSGNTATLTISGVEAGDEADYYCQVWDSISDHRVFGGGTKLTVLG"}, "B6": {"name": "P4B-1F4 (antibody, human IgG1, kappa, V domains shown)", "VH": "QVQLVESGGGVVQPGRSLRLSCAASGFTFSSYGMHWVRQAPGKGLEWVAVISYDGSNKYYADSVKGRFTISRDNSKNTLYLQINSLRAEDTAVYYCAKGPRYSSSWYISLYYYYGMDVWGQGTTVTVSS", "VL": "not shown"}, "B7": {"name": "P2B-2F6 (antibody, V domains shown)", "VH": "QVQLQESGPGLVKPSETLSLTCTVSGYSISSGYYWGWIRQPPGKGLEWIGSIYHSGSTYYNPSLKTRVTISVDTSKNQFSLKLSSVTAADTAVYYCARAVVGIVVVPAAGRRAFDIWGQGTMVTVSS", "VL": "QSALTQPPSASGSPGQSVTISCTGTSSDVGGYNYVSWYQQHPGKAPKLMIYEVSKRPSGVPDRFSGSKSGNTASLTVSGLQAEDEADYYCSSYAGSNNLVFGGGTKLTVLG"}, "B8": {"name": "P2B-2F6 (antibody, V domains shown)", "VH": "B7 VH", "VL": "B7 VL"}, "B9": {"name": "P2B-2F6 (antibody, V domains shown)", "VH": "B7 VH", "VL": "B7 VL"}, "B10": {"name": "P2A-1A8 (antibody, V domains shown)", "VH": "EVQLVESGGDLVQPGRSLRLSCAASGFAFDDYAMHWVRQAPGKGLEWVSGSTWNSGTIAYADSVKGRFTISRDNAKKSLYLQMNSLRTEDTALYYCAKLGGYSDYDYPRPGDHYYGLDVWGQGTTVTVSS", "VL": "QSALTQPASVSGSPGQSITISCTGTSSDVGSYNLVSWYQQHPGKVPKLLIYDVNKRPSGISNRFSGSKSGNTASLTISGLQAEDEADYYCRSYTDSNTYVFGTGTKVTVLG"}, "B11": {"name": "P2B-1A10 (antibody, human IgG1, kappa, V domains shown)", "VH": "EVQLVESGGGLIQPGGSLRLSCAASGFTVSSNYMSWVRQAPGKGLEWVSVIYSGGSTYYADSVKGRFTISRDNSKNTLYLQMNSLRAEDTAVYYCAREGPKSITGTAFDIWGQGTIVTVSS", "VL": "DIQMTQSPSSLSASVGDRVTITCQASQDISNYFNWYQQKPGKAPKLLIYDASNLETGVPSRFSGSGSGTDFTFTISSLQPEDIATYYCQQYDNLPMYTFGQGTKLEIKR"}},
  "key": {"[1]": {"biological_target": "T1, full length spike (S) protein of SARS-CoV-2 (SARS-CoV-2, UniProt P0DTC2 14-1273)", "assay": "cell-based or functional assay"}, "[2]": {"biological_target": "full length spike (S) protein of SARS-CoV-2 on pseudovirus (SARS-CoV-2, UniProt P0DTC2 14-1273)", "assay": "cell-based or functional assay"}, "[3]": {"biological_target": "T1, full length spike (S) protein of …", "assay": "cell-based or functional assay", "remark": "listed apart in the source"}, "[4]": {"biological_target": "recombinant RBD of the spike protein of SARS-CoV-2 (residues Arg319-Phe541) (SARS-CoV-2, UniProt P0DTC2 319-541)"}, "[5]": {"biological_target": "T1, full length spike (S) protein of …", "assay": "cell-based or functional assay", "remark": "listed apart in the source"}, "[6]": {"biological_target": "T1, full length spike (S) protein of …", "assay": "cell-based or functional assay", "remark": "listed apart in the source"}, "[7]": {"biological_target": "spike protein on live SARS-CoV-2 (SARS-CoV-2, UniProt P0DTC2 14-1273)", "assay": "cell-based or functional assay"}, "[8]": {"biological_target": "spike protein of live SARS-CoV-2 (SARS-CoV-2, UniProt P0DTC2 14-1273)", "assay": "cell-based or functional assay"}, "[9]": {"biological_target": "full length S protein of SARS-CoV-2 (on pseudovirus) (SARS-CoV-2, UniProt P0DTC2 14-1273)", "assay": "cell-based or functional assay"}, "[10]": {"biological_target": "spike (S) protein of live SARS-CoV-2 (SARS-CoV-2, UniProt P0DTC2 14-1273)", "assay": "cell-based or functional assay"}},
  "note": "Where two headings read alike, the source gives them in different places.",
  "data": [
    {"binder": "B1", "values": [
      {"measurement": "IC50, pseudovirus neutralization", "setting": "[1]", "value": 5.96, "unit": "µg/mL"}
    ]},
    {"binder": "B2", "values": [
      {"measurement": "Pseudovirus IC50", "setting": "[2]", "value": 16.8, "unit": "µg/mL"},
      {"measurement": "Pseudovirus IC80", "setting": "[2]", "value": "> 50", "unit": "µg/mL"}
    ]},
    {"binder": "B3", "values": [
      {"measurement": "IC50, pseudovirus neutralization", "setting": "[1]", "value": 3.12, "unit": "µg/mL"}
    ]},
    {"binder": "B4", "values": [
      {"measurement": "IC50, pseudovirus neutralization", "setting": "[1]", "value": 0.687, "unit": "µg/mL"}
    ]},
    {"binder": "B5", "values": [
      {"measurement": "IC50, pseudovirus neutralization", "setting": "[3]", "value": 0.11, "unit": "µg/mL"},
      {"measurement": "Kd", "setting": "[4]", "value": 0.1, "unit": "nM"},
      {"measurement": "kon", "setting": "[4]", "value": "1.38e+06", "unit": "M⁻¹ s⁻¹"}
    ]},
    {"binder": "B6", "values": [
      {"measurement": "IC90, Pesudovirus neutralization", "setting": "[5]", "value": 14.5, "unit": "µg/mL"}
    ]},
    {"binder": "B7", "values": [
      {"measurement": "IC50, pseudovirus neutralization", "setting": "[6]", "value": 0.05, "unit": "µg/mL"},
      {"measurement": "Neutralizing activity (%) Mean at 0.0228624 µg/ml", "setting": "[6]", "value": 39.4, "unit": "%"},
      {"measurement": "Neutralizing activity (%) Mean at 0.0685871 µg/ml", "setting": "[6]", "value": 51.8, "unit": "%"},
      {"measurement": "Neutralizing activity (%) Mean at 0.2057613 µg/ml", "setting": "[6]", "value": 67.1, "unit": "%"},
      {"measurement": "Neutralizing activity (%) Mean at 0.6172839 µg/ml", "setting": "[6]", "value": 81.4, "unit": "%"},
      {"measurement": "Neutralizing activity (%) Mean at 1.851852 µg/ml", "setting": "[6]", "value": 89, "unit": "%"},
      {"measurement": "Neutralizing activity (%) Mean at 5.555555 µg/ml", "setting": "[6]", "value": 93.5, "unit": "%"},
      {"measurement": "Neutralizing activity (%) Mean at 16.66667 µg/ml", "setting": "[6]", "value": 95.4, "unit": "%"},
      {"measurement": "Neutralizing activity (%) Mean at 50 µg/ml", "setting": "[6]", "value": 97.4, "unit": "%"},
      {"measurement": "IC50, live SARS-CoV-2 focus reduction neutralization test (FRNT)", "setting": "[7]", "value": 0.41, "unit": "µg/mL"}
    ]},
    {"binder": "B8", "values": [
      {"measurement": "Live virus IC50", "setting": "[8]", "value": 0.407, "unit": "µg/mL"},
      {"measurement": "Pseudovirus IC50", "setting": "[9]", "value": 0.05, "unit": "µg/mL"},
      {"measurement": "Pseudovirus IC80", "setting": "[9]", "value": 0.607, "unit": "µg/mL"}
    ]},
    {"binder": "B9", "values": [
      {"measurement": "Live virus IC50", "setting": "[10]", "value": 0.407, "unit": "µg/mL"},
      {"measurement": "Live virus IC80", "setting": "[10]", "value": 2.43, "unit": "µg/mL"},
      {"measurement": "Pseudovirus IC50", "setting": "[2]", "value": 0.05, "unit": "µg/mL"},
      {"measurement": "Pseudovirus IC80", "setting": "[2]", "value": 0.607, "unit": "µg/mL"}
    ]},
    {"binder": "B10", "values": [
      {"measurement": "IC50, pseudovirus neutralization", "setting": "[6]", "value": 7.68, "unit": "µg/mL"},
      {"measurement": "Neutralizing activity (%) Mean at 0.0228624 µg/ml", "setting": "[6]", "value": 4.34, "unit": "%"},
      {"measurement": "Neutralizing activity (%) Mean at 0.0685871 µg/ml", "setting": "[6]", "value": 13.2, "unit": "%"},
      {"measurement": "Neutralizing activity (%) Mean at 0.2057613 µg/ml", "setting": "[6]", "value": 14.1, "unit": "%"},
      {"measurement": "Neutralizing activity (%) Mean at 0.6172839 µg/ml", "setting": "[6]", "value": 16.5, "unit": "%"},
      {"measurement": "Neutralizing activity (%) Mean at 1.851852 µg/ml", "setting": "[6]", "value": 26.7, "unit": "%"},
      {"measurement": "Neutralizing activity (%) Mean at 5.555555 µg/ml", "setting": "[6]", "value": 44.8, "unit": "%"},
      {"measurement": "Neutralizing activity (%) Mean at 16.66667 µg/ml", "setting": "[6]", "value": 67.8, "unit": "%"},
      {"measurement": "Neutralizing activity (%) Mean at 50 µg/ml", "setting": "[6]", "value": 88.2, "unit": "%"},
      {"measurement": "IC50, live SARS-CoV-2 focus reduction neutralization test (FRNT)", "setting": "[7]", "value": 35.9, "unit": "µg/mL"}
    ]},
    {"binder": "B11", "values": [
      {"measurement": "IC50, pseudovirus neutralization", "setting": "[1]", "value": 0.349, "unit": "µg/mL"}
    ]}
  ]
}
